# B1: Lefty1 enhancer DNA (dsDNA)
# DNA 1: GGTGGGAGGGAGACTGCCCTTTGTCATGTAGAAGGAGCTT
# DNA 2: AAGCTCCTTCTACATGACAAAGGGCAGTCTCCCTCCCACC
# B2: Rpl30 DNA with tethered Arid1a RNA (mixed)
# mixed 1: TCGCTCCCCGGCCATCTTGGCGGCTGGTGTCUCUUCUCUCUUAAAAUGGCUGCCUGUCUG
# mixed 2: ACACCAGCCGCCAAGATGGCCGGGGAGCGACUCUUCUCUCUUAAAAUGGCUGCCUGUCUG
# B3: Arid1a promoter DNA with YY1 motif (dsDNA)
# DNA 1: CTCTTCTCTCTTAAAATGGCTGCCTGTCTG
# DNA 2: CAGACAGGCAGCCATTTTAAGAGAGAAGAG
# B4: Rpl30 promoter DNA with YY1 motif (dsDNA)
# DNA 1: TCGCTCCCCGGCCATCTTGGCGGCTGGTGT
# DNA 2: ACACCAGCCGCCAAGATGGCCGGGGAGCGA
# B5: Arid1a promoter RNA A (ssRNA)
# RNA: CUCUUCUCUCUUAAAAUGGCUGCCUGUCUG
# B6: Arid1a promoter RNA B (ssRNA)
# RNA: CCCGCCUCCCCAGGCCUACGCGCUGAGCUC
# Columns and labels:
# OCT4 [1] = biological target: T1, OCT4 (Homo sapiens, UniProt Q01860 Q01860:1-360); assay: EMSA; 250 nM OCT4; settings: tags: Abcam ab134876; label: 32P
# Procedure: (§1) The x-axis indicates distance from the TSS in kilobases. The y-axis indicates average density of uniquely mapped reads per genomic bin. […] A radioactively labeled 40-bp DNA probe containing OCT4 consensus binding motif derived from the enhancer of Lefty1 gene was incubated with 250 nM of the recombinant human OCT4 (Abcam, # ab134876). In competition EMSA, 100-fold molar excess of cold competitor DNA containing the OCT4 motif (Lefty1 DNA comp), cold DNA competitor, in which bases adjacent the OCT4 motif were randomly substituted (mut Lefty1 DNA comp), cold DNA competitor lacking the OCT4 motif (Arid1a DNA comp), or cold RNA competitor (Arid1a RNA comp) was pre-incubated with the recombinant OCT4 before the radioactively labeled DNA probe was added to the binding reaction. The arrows indicate free probe and probe bound by OCT4.
# YY1 (full length) [2] = biological target: T2, YY1 (full length) (Mus musculus, UniProt Q00899 Q00899:1-414); assay: EMSA; tethered RNA outcompetes DNA with untethered RNA; IC50 values only in figure; settings: tags: N-terminal His6; label: 32P (probe 2); 30-bp DNA duplex with 30-nt RNA overhang at each 3' end
# [3] = biological target: T3, YY1 C-terminal region (zinc fingers) (Mus musculus, UniProt Q00899 Q00899:271-414); assay: EMSA; zinc-finger region binds DNA; settings: label: 32P
# Procedure: (§2) Sizes of N-terminal and C-terminal regions of YY1 are drawn to scale. […] 5 nM of radioactively labeled 30-bp DNA probe derived from the promoter region of Arid1a gene containing a consensus YY1 binding motif was incubated with increasing concentrations of full-length recombinant murine YY1 protein (FL), the N-terminal portion of YY1 (N-term) lacking the zinc-fingers or the C-terminal portion (C-term) containing the zinc fingers. […] The arrows indicate free probe and probe bound by YY1. […] 5 nM of radioactively labeled 30-nt RNA probe derived from the promoter region of Arid1a gene was incubated with increasing concentrations of full-length recombinant murine YY1 protein (FL), the N-terminal portion of YY1 (N-term) lacking the zinc-fingers or the C-terminal portion (C-term) containing the zinc fingers. […] The arrows indicate free probe and probe bound by YY1;
# (§3) EMSAs with the recombinant murine YY1 were performed in a similar way as those with the NE. DNA-binding reactions (20 μl) contained 10 mM HEPES-KOH pH 7.5, 12 mM Tris-HCl pH 7.4, 50 mM NaCl, 50 mM KCl, 5 mM MgCl₂, 0.1 mM ZnCl₂, 0.01% NP-40, 5% glycerol, 500 ng poly(dI-dC), 0.5 mM DTT, and recombinant murine YY1. […]
# YY1 (full length) [4] = biological target: T2, YY1 (full length); assay: EMSA; higher affinity than for RNA; 0.1 mM ZnCl2, 5 mM MgCl2; binding curve only in FIG. 7B; settings: tags: N-terminal His6; label: 32P
# Procedure: (§4) 5 nM of radioactively labeled 30-bp DNA probe derived from the promoter region of Arid1a gene containing a consensus YY1 binding motif ([…]; SEQ ID NO: 4) was incubated with increasing concentrations of recombinant murine YY1 protein. Right panel: EMSA of YY1-RNA complexes at different concentrations of recombinant YY1. 5 nM of radioactively labeled 30-nt RNA probe derived from the same region of the Arid1a gene was incubated with increasing concentrations of recombinant YY1 protein.
# (§5) EMSAs with the recombinant murine YY1 were performed in a similar way as those with the NE. DNA-binding reactions (20 μl) contained 10 mM HEPES-KOH pH 7.5, 12 mM Tris-HCl pH 7.4, 50 mM NaCl, 50 mM KCl, 5 mM MgCl₂, 0.1 mM ZnCl₂, 0.01% NP-40, 5% glycerol, 500 ng poly(dI-dC), 0.5 mM DTT, and recombinant murine YY1. RNA-binding reactions (20 μl) contained 10 mM HEPES-KOH pH 7.5, 12 mM Tris-HCl pH 7.4, 50 mM NaCl, 50 mM KCl, 5 mM MgCl₂, 0.1 mM ZnCl₂, 0.01% NP-40, 5% glycerol, 10 U SUPERase In RNase inhibitor (Life Technologies), 0.5 mM DTT, and recombinant murine YY1.
# YY1 (full length) [5] = biological target: T2, YY1 (full length); assay: EMSA; 240 nM YY1 in FIG. 9C; settings: tags: N-terminal His6; label: 32P
# Procedure: A radioactively labeled 30-bp DNA probe containing YY1 consensus binding motif derived from the promoter region of Arid1a gene was incubated with 80 nM of the recombinant murine YY1. For supershift assay, 0.5 μl of YY1 antibodies (# sc-7341) was added to the DNA probe pre-incubated with the recombinant protein. In competition EMSA, 100-fold molar excess of cold competitor DNA containing YY1 motif (Spec comp) or lacking YY1 motif (Nspec comp) was pre-incubated with the recombinant YY1 before the radioactively labeled DNA probe was added to the binding reaction. The arrows indicate free probe, probe bound by YY1, probe bound by YY1 fragment, and supershifted probe. […] Radioactively labeled 30-bp DNA probe containing YY1 consensus binding motif derived from the promoter region of Rpl30 gene was incubated with 240 nM of the recombinant murine YY1. In competition EMSA, 100-fold molar excess of cold competitor RNA derived from the promoter region of Arid1a gene was pre-incubated with the recombinant murine YY1 before the radioactively labeled DNA probe was added to the binding reaction. The arrows indicate free probe and probe bound by YY1;
# EMSAs with the recombinant murine YY1 were performed in a similar way as those with the NE. […]
# OCT4 [6] = biological target: T1, OCT4; assay: EMSA; legend: OCT4 does not bind RNA in vitro; settings: tags: Abcam ab134876; label: 32P
# Procedure: as §1
# [7] = biological target: T3, YY1 C-terminal region (zinc fingers); assay: EMSA; zinc-finger region does not bind RNA; settings: label: 32P
# Procedure: as §2, §3
# YY1 N-terminal region = YY1 N-terminal region (Mus musculus, UniProt Q00899 Q00899:1-277); assay: EMSA; N-terminal region binds RNA; settings: label: 32P
# Procedure: as §2, §3
# YY1 (full length) [8] = biological target: T2, YY1 (full length); assay: EMSA; weaker than DNA; 0.1 mM ZnCl2, 5 mM MgCl2; settings: tags: N-terminal His6; label: 32P
# Procedure: as §4, §5
# YY1 (full length) [9] = biological target: T2, YY1 (full length); assay: competition; described as RNA incompatible with YY1 binding in vitro; settings: tags: N-terminal His6
# Procedure: A radioactively labeled 30-nt RNA probe containing sequence derived from the promoter region of Arid1a gene shown in blue above the image or the complementary sequence shown in pink was incubated with 400 nM of the recombinant murine YY1. The arrows indicate free probe and probe bound by YY1. […] Radioactively labeled 30-nt RNA probe derived from the promoter region of Arid1a gene was incubated with 400 nM of recombinant murine YY1. Sequence of the probe is shown above the image in blue. In competition EMSA, 100-fold molar excess of cold competitor RNA with the same sequence as the radiolabeled RNA (Arid1a RNA A), complementary sequence (Arid1a RNA 1), or a different sequence (Arid1a RNA B) was pre-incubated with the recombinant YY1 before the probe was added to the binding reaction. The arrows indicate free probe and probe bound by YY1. Asterisk indicates the position of double-stranded RNA formed when single-stranded cold RNA was incubated with the complementary labelled RNA probe. […] Radioactively labeled 30-nt RNA probe derived from the promoter region of Arid1a gene was incubated with 400 nM of recombinant murine YY1. Sequence of the probe and competitor RNA are shown above the image. For supershift assay, 0.5 μl of YY1 antibodies (# sc-7341) was added to the RNA probe. […]
# T2 sequence (Q00899 whole entry, one chain of several): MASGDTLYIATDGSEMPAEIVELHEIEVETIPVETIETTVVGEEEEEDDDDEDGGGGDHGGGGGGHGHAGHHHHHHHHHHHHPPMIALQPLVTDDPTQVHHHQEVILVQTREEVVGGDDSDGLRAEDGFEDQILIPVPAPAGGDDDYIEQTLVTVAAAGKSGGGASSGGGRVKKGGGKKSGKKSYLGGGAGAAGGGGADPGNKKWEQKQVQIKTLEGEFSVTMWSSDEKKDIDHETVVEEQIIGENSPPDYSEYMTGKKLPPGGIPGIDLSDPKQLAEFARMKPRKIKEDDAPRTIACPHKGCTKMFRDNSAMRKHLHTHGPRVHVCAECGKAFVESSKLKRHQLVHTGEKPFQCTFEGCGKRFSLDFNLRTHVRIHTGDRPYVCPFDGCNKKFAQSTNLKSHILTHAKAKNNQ
# T3 sequence (Q00899 271-414, one chain of several): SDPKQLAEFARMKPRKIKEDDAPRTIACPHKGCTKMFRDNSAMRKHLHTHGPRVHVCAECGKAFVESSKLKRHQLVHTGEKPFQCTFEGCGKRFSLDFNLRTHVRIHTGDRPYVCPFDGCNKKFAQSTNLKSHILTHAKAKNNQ
# T1 sequence (Q01860 whole entry, one chain of several): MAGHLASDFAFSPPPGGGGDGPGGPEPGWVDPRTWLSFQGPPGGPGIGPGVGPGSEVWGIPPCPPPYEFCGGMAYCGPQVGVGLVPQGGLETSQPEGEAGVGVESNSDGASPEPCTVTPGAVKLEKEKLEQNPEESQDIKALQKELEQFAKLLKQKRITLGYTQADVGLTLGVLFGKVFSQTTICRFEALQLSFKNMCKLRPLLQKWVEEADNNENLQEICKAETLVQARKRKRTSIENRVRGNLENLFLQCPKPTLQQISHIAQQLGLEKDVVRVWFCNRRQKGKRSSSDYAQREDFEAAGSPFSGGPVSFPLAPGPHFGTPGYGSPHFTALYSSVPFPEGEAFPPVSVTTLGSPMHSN
# Chain of YY1 N-terminal region (Q00899 1-277, one chain of several): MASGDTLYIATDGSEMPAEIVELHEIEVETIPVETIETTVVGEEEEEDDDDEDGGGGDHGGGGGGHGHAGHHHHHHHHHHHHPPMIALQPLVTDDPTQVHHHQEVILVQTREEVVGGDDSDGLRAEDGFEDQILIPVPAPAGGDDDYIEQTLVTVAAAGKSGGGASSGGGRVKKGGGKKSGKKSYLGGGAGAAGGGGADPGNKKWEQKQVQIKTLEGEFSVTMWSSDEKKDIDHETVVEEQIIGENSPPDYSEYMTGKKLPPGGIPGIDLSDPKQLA
binder,measurement,setting,value
B1,binding result,OCT4 [1],binds
B2,binding result,YY1 (full length) [2],binds
B3,binding result,[3],binds
same,binding result,YY1 (full length) [4],binds
B4,binding result,YY1 (full length) [5],binds
B5,binding result,OCT4 [6],no binding
same,binding result,[7],no binding
same,binding result,YY1 N-terminal region,binds
same,binding result,YY1 (full length) [8],binds
B6,binding result,YY1 (full length) [9],no binding

# From US20190062752, “Transcription Factor Trapping by RNA in Gene Regulatory Elements” (Whitehead Institute for Biomedical Research, published 2019)
